According to the DeepSol protein solubility set:

Test: soluble on expression in E. coli; label from the status in PepcDB or PDB records

Sequence: MPTKLSNKYHDEIEQNGFTVVRNFLSPQEIEKYTKASEALVQYARDGNWPHVRTRGKQFPPWPKNFSPDIWGVSGLLHPDLGELSKPFHDLYSDEKLLNVVCDILLIEKTDLSMELLNMLINPLTDFELDWHRDTIKPEVTPEEEAEDLLKFPYAGAQFNLALTEDDCLIAIPGSHNRVRTTEEREKTIDPNRRKEFITGEIRVQLQPGDLVFYNNNILHRAAYSSKNKRLTLHGSYGNVNQGKSRAKGILQHGVAEWLPRLETKNTNLKMLQEKLLNLAKEFEGVELGYALDG
- soluble on expression in E. coli: soluble

Sequence: MGSDKIHHHHHHMENKEVIIIGAGAAGVGMGVALKDFGINNFAILERKQVGNSFIKWPEQTRFITPSFTSNGFGMPDLNAIAIDTSPSYTLGEERLSGKDYAKYLQLVSEEYKLPIKTNCKVQSIKKEKTGYLLETTKGFIYAEYVIFAMGEFSFPNKSSIKGAYKNSLHYGEINSWIEIKGDKQTIIGGNESAIDAAIELAKLGKRVTIYTDTLGLNIRDADPSKRLAPRTRQRFFDLRVNQKKLDSIKIYTTTKVKKIEKKSTSYILITENGKSLPVENIPILCTGFKNGTKSITASLFKYKENGEVLLNDFDESTIAKNIFLTGPNVRKGNTIFCYIYKFRQRFAVIANEIARRKHITIDEKKLSYYKNQSFYLDGCSGCEVRCSC
- soluble on expression in E. coli: not soluble

Sequence: MGSDKIHHHHHHMKVSDIMTPDPITYHVPSSINEVIKVLIKYNVTGVPITDQSGHYAGFVSRRDVFANPRETQTAMVMRRSKAVYEDDEVRTAALEMLAQKKRHLTVVDRDGHVKGILTPQNFMKTIKENYGNVKVKEVMKETSVPIWYKTPLPAILTVMNVSGIFSFPVIDDNGTFVGLLVDRDIFDRIDLKFDSILSEMGIADDEDPWSWTGLRNVFKYVVERADIKLPKISADEIMVKNPTVVYANDKLSTAAELMIKYNYNQLPVLDDSHGIYGMLYDIEMLGVFQ
- soluble on expression in E. coli: not soluble

Sequence: NLSELTPYILCSICKGYLIDATTITECLHTFCKSCIVRHFYYSNRCPKCNIVVHQTQPL
- soluble on expression in E. coli: soluble

Sequence: MKRCDLHIHTVPSVSDREFTYDKEILSDYVAKTKLDVIAITNHNLFDYAQFQEIKDILPQIVVLPGIEVDLEDGHILVIANNDDRTLFDFNSKCEEIKNLIKSEADNITYDRFVGIFGDLSKYLLIPHYEKEPKLRKDILEKLGRNIIAGEVSSVKKFIYMEKERAGLTPVYFSDFRIEKGITPDKYPVSHTFFDVDEVNIKTLKLCLMDKTKVSLTSEEGIKLFPIFPNGQKLSTGLNIMYGKRSTGKTFTLDAIASRFNGKAKYIKQFELLNTNRNDSEQFESDMKVRQEESAENYLREFSDVVTDMLKTCSSDEDDIKLQKYLDAVKSSAQQSNVNDVFSKSKLFNESDFKERSCDEIKELINATQTLLESQLYKKIINKHLSEISLKALLKDLIELYLEGNAANQYVKEVNNMIKMVKESLQLKSAAPRIPDIDLYQYFINKKKREVFAQIAMSVKKSRTISTEKAGHFTVSVSARPFMNATDLKTVRLTQVSLTNAFKKYENPVQYLNELKAAGVEINRIYKLFAAIDYKILNSSGLPVSGGERSEFNFLQKIKDAILCDILIIDEPESSFDNIFLKNEVNKFIKEMAENMPVIISTHNNTIGSSIKPDYILYTEKKMEADGAHFKIYSGYPTAKELRDVDGNTIENYEITLNSLEAGEQAYSERKDIYETLKN
- soluble on expression in E. coli: not soluble

Sequence: MGSDKIHHHHHHMISTANITMQFGSKPLFENVSVKFNNGNRYGLIGANGCGKSTFMKILGGDLEPSAGQVMLEPNTRLGKLRQDQFAYEEFTVIDTVIMGHGQLWKVKAERDRIYSLPEMTEEDGMAVAELETEFAEMDGYTAESRAGELLLGLGIPLEQHFGPMSEVAPGWKLRVLLAQALFSDPDVLLLDEPTNHLDINTIRWLETILTARNSTMIIISHDRHFLNSVCTHMADLDYGELRLFPGNYDEYMTAATQSREQLLSDNAKKKAQIAELQTFVSRFSANASKAKQATSRAKQIDKIQLAEVKPSSRVSPFIRFEQAKKLHRQAVVVEKMAKAFDDKVLFKNFDITVEAGERVAIIGPNGIGKTTLLRTLVGEMTPDAGSVKWTDSAEVGYYAQDHAHDFEDDMTLFDWMGQWTSGEQVIRGTLGRMLFSNDEILKSVKVISGGEQGRMLFGKLILQKPNVLVMDEPTNHLDMESIEALNLALENYPGTLLFVSHDREFVSSLATRIIELSADGVVDFSGTYDDYLRSQGVLV
- soluble on expression in E. coli: not soluble

Sequence: LTLPGIANLRRLRVDDVAIPKVEIVAVPVDIGKEDLVAVFREHGFSRLPVYRETLDQPLGLVLLKDLALQHGFNGNGSFDLKTLLRPLLYAPPSMPIGVLLQKMQRERVHMALVIDEYGGVDGLVTIEDLIETVIGEIEDEHDEVEGPLWTLEKPGVYMAQSRTPLDEFEAEIGLRLRREEEDEEIDTLGGLV
- soluble on expression in E. coli: not soluble

Sequence: SLTSEMIENIQSVKAYCWEEAMEKSGGGSGGGSGGGSGGGIENSHVKKDDIWPSGGQMTVKDLTAKYTEGGNAILENISFSISPGQRVGLLGRTGSGKSTLLSAFLRLLNTEGEIQIDGVSWDSITLEQWRKAFGVIPQKVFIFSGTFRKNLDPYEQWSDQEIWKVADEVGLRSVIEQFPGKLDFVLVDGGCVLSHGHKQLMCLARSVLSKAKILLLDEPSAHLDPVTYQIIRRTLKQAFADCTVILCEARIEAMLECDQFLVIEENKVRQYDSIQKLLNERSDFRQAISPSD
- soluble on expression in E. coli: soluble

Sequence: MAHHHHHHMGVPTMERSHGRRSPDEVRYPHIVLNVLGQSYSSACIEVGSTRVVCAVHHPQQLIDEYRGSRGRVACTVRRSSRAQKHELAFRADVTPEKDLALALEGVVEQAVVLEKIPQLLVEVAVEILAEDGGLWDAIATGVCAALASGGFEMYDTFSACGAALLPDGSIVTDPSATEWNTAKATAVTCAMLNSGNMCFTAQRGSCEPTTALDLVMAALKGTLARKNVISSQLCEQFAF
- soluble on expression in E. coli: not soluble

Sequence: AIARENEAVKPTIQAVYLAAGLSSRFGGRIKCLQEVGRHGETLLELSVRQLCEAYPAISSLVFVVSEATHLPIHALIGEQFYGLPVYFCVQRVPAWRKRPLGTVDALLAAREHIHGPFIVLNGDSLYGVAALSLVCNHITAAKTACMPGYKLREVLPKEGRVNRAIVQTDERHRVLEIVEQYNIGFEDIEEGRYTGDELTSMNVFGFHDTSIFARADERFRRFLSELEALRDDHHLQQQQQSVKRCSTDENDVYAHKEYILSTMLNELLHDAQIELMVLSCNSIRTPLELTNPGDFAFVKNHLDLVGL
- soluble on expression in E. coli: soluble

Sequence: MGSDKIHHHHHHMKITVLYSGNYGERVLNTILEKFAQNIVSIHEIPENLPEYIDDVSEYVPENLKESDLIISVGLFGDINLIVCDIAKKTNAKSIIIESHSPKQVTKGLKSEISDSLNEIKIVFPKPFCSLKPVGDTYIDEFAKYFGSPEIEIIGETIVKSVIVKRNAPCGSTKYVAENLTGYSLNEVEFESGNKLHNYPCLASMDVDNEIGDTILHLAGYKIKEAVKKSLKFSNKILTVTGDCKGFECGFKCYKICPVVKMGENAVEIEKTHVNINNLFCGCCMKCVDICPFNAIKVLNYKI
- soluble on expression in E. coli: not soluble

Sequence: MSTFKPLKTLTSRRQVLKAGLAALTLSGMSQAIAKDELLKTSNGHSKPKAKKSGGKRVVVLDPGHGGIDTGAIGRNGSKEKHVVLAIAKNVRSILRNHGIDARLTRSGDTFIPLYDRVEIAHKHGADLFMSIHADGFTNPKAAGASVFALSNRGASSAMAKYLSERENRADEVAGKKATDKDHLLQQVLFDLVQTDTIKNSLTLGSHILKKIKPVHKLHSRNTEQAAFVVLKSPSVPSVLVETSFITNPEEERLLGTAAFRQKIATAIAEGVISYFHWFDNQKAHSKKR
- soluble on expression in E. coli: soluble

Sequence: MRKSVFVLVFLMASVLFSVELKICYLNEDLLPIVKVTEGRDNPVLEIFEALSSPPEGLKTFVPEGVLRAYFFVGDYLILDFYGEKLKGMNFDSERYFLHQVLYTTFLNVKGVNNVYIIIDGKKRDVLAKHVDIRFSFPREVWEKWPIRLEHHHHHH
- soluble on expression in E. coli: not soluble

Sequence: MAVSAYFHIPFCAHICHYCDFNKVFAAGQPIDDYLRAMDKEMAWTAAEFGSQLKTLFIGGGTPTVLEPAQLGCLLASIHRHFQFDPQTAEFTVEANPDGLTKEKLAILRDAGVNRLSLGVQTFDDQLLQTIGRTHRRGDVIRAVALAREVGFQNISIDVMYGLPGQTLEQFTADLEAAFSLHVPHLSAYSLILEPRTIFYNEWRKGRLRLPGEEMEAEMYEAAMEQMAAAGYRQYEISNYALPGFESRHNLTYWNNEEYYGIGAGAHSYIDGVRRANIGPIRHYISAIERGQWPHRDVRRLTTREQMEEEMFLGLRKTEGVSKACFRQKFGRDLHDIFGAAIRREIENGRLEETETHIRLTKRGKLLGNEVFAAFLGEM
- soluble on expression in E. coli: not soluble

Sequence: MSEELEYLKVLLYASQVEAQKLRKQKEEKDALLKTFQVKLEVEALGNLPAQRNLSEDISKREIQSLKKQVTVLKEEIGLEGSKLAIANAVQEQLKTDLADEKEKCRFTREVTKLYQMNIQLDQPSRDQVADYLQFEIRTVKEVLRQKEEELEKLMAENKYNYFENCAEKCRIQEETSAARREADLLRDEMKTLVKNMNAKSEELLGQLRDSTEKCEEMEIDCNIQLLELQKRHELLNYYASLG
- soluble on expression in E. coli: not soluble

Sequence: MGSDKIHHHHHHMETIERHFRCNEGSAADYAAQLREVGTVMLPAYVAFDAHELAHIDALQARLPEEPVTAGDAGDTHDIYVRRIMVDRAGERPQLVNRPHSEPILALLTDARRTRFFGDMFGANAEYFIRRCQINRMLKDSFIGLHLDAASNPDYEFSVVIQLGREFDGGEFVVHPEGRLPNVFAPTYGTVIVTSCMHRHEVRSVRANERTSLVYFYARHNGVNRRAN
- soluble on expression in E. coli: not soluble

Sequence: MGSDKIHHHHHHMLVKKISPRGYCYGVVDAMKLAQQAALNDNLPRPIHILGMIVHNAHVTREFERMGVLTVDGPDRLEALETIKEGTVIFTAHGISPAVYARAAEKKLTVVDATCPDVTRTHDLIRSVVADDYEVIYVGKHGHPEPEGAVGVAPEHVHLIEKVEDIEALPAHLADKKIIVTNQTTMSQWDVQALMEHVRKKYPHVEVHNEICNATQVRQEAVAEQAGDCDLVIVVGDPRSNNSNRLAQVSFDIAATPAHRIGDLTELDLSWLDGVNQVGVTSGASTPTPITKKVIDFLQQYDPADISTHDKTPFLELRRILPKVKIL
- soluble on expression in E. coli: not soluble

Sequence: MKKHDGIIVLLSGGMDSATLLWLAKREFKKVYAISFDYGQRHKVELKYAKELAKLAEVEDHFIVQVPFYTSLKGSALIDESVEVPKGEYPENEPPVTTVPMRNLIFLSIASAFADNLEVNYIGIGVHALDTPYPDCRPEFITAAEAAINAGSTFVAKKKERMHVYAPFLGMSKRDIALLGKELGVPFEKTYSCYMGTEPPCGECPTCIQREEALRGIL
- soluble on expression in E. coli: soluble

Sequence: MAHHHHHHMALTLSPVEAALATCVALRYFYAHALHLSAATRVAHSVGPAPHDLSDRFTANLPFEDYLQWGLESIYSDASSAEAHLCLEQLSSNLRDAIMTHANNMEFRFLDEAPSLFDTVLLTSLYLVRSRVLRMPLLSSTSNKPDSNCSVFGPGLDALNHCSTSPAAVVVVSAARRSVVVRARRRINRGEEITLDYRLTGSGRGVSRGHPSHNGSLLRGDVICMNDDWAARYLMN
- soluble on expression in E. coli: not soluble

Sequence: MKYTEIMVRYGELSTKGKNRKTFIMQLAQNVKRALADFPALKIHADRDRMHILLNGEDSEEVIPKLSKVFGIQNFSPSIRIEKEMPAIRAMVQEVVREVYTPGKTFKITAKRSDHSFELDSNGLNQELGGAVIEAIPEIQVQMKKPDINLRIEIRKDAAYLSYETIRGAGGLPVGTSGRGMLMLSGGIDSPVAGYLAMKRGVEVEAVHFASPPYTSEQALQKAKDLAEKLVPYVGTIQFIEVPFTEIQEEIKRVVPQGYLMTITRRLMLRLTDAIREMRKGLVIINGESLAQVASQTLQSMVAINEVTSTPIIRPVVSMDKTEIIEIAEKIDTFELAIQPFEDCCTIFAPPQPKTRPRLDKAQEYEARLDLEGLMARALEGLKITEISAETAKDKQEDEFADFL
- soluble on expression in E. coli: not soluble
